The values that follow come from article PMC7586228.

A short description of series [1]: Golgi residence time, live imaging with CHX. The conditions noted are these: glycan lost; control: DMSO.
Series [2] can be described thus: immunofluorescence, colocalisation with GM130. The conditions noted are these: glycan lost; control: DMSO.

As to transferrin receptor (TfR): GalNAc-O-Bn, the localisation_or_trafficking entry in series [1] was “increases”; in series [2], “changes”.
